The text below walks through data of article PMC6887587.

Assay [1] deals with FHR4/VHH(T) trifunctional heteromultimer, Clone IA3 (third single-cell sorting) (human). Kind of assay: SPR; Biacore 3000, CM5 chip; 10 000 RU of purified multimer immobilised by amine coupling; C3b 2.5, 5, 10 and 20 µg/mL injected in HBS-EP (10 mM Hepes pH 7.4, 150 mM NaCl, 3 mM EDTA, 0.05% P20) with 20 mM MgCl2, 5 min at 30 µL/min, 5 min dissociation; 1:1 Langmuir fit. In general terms: In SPR one partner is held on a chip, and binding of the other changes the refractive index at the surface.

Assay [2] addresses FHR4/VHH(T) trifunctional heteromultimer, Clone 2E3 (first single-cell sorting) (human) (UniProt P04003). The description is as above.

pKd: −log10 of the molar value.

The pKd is the Kd on a negative log10 scale, so that one unit is a factor of ten. Read a low pKd as a large Kd.

UniProt P04003, sequence (P04003 whole entry, looked up, one chain of several): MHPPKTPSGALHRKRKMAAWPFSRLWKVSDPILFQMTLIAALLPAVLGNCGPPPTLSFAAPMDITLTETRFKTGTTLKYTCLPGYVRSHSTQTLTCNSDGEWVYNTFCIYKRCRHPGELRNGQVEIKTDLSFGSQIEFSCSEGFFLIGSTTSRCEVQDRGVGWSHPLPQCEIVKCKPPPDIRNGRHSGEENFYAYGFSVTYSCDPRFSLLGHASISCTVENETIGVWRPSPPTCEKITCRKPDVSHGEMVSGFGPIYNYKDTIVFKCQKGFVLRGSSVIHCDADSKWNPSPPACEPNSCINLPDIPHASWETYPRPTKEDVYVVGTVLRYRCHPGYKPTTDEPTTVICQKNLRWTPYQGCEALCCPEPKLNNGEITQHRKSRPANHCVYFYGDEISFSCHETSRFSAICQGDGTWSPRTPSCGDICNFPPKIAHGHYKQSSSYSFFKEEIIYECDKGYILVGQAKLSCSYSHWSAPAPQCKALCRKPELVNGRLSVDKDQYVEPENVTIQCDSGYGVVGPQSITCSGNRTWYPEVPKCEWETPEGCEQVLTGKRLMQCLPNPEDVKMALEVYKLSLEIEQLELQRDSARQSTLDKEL

As to “C3b (from UniProt P01024 749-1663; P01024 749-1663) (natural protein)”, in assay [1], the Ka was 4.48e+06 M⁻¹, the pKd was 6.65, the final C3b binding (RU) was found to be 78.6 RU and the maximum C3b binding at 20 µg/mL C3b (RU) stood at 136 RU. In addition, in assay [2], the Ka worked out at 3.65e+06 M⁻¹, the negative-log Kd (pKd) is 6.56, the final C3b binding (RU) was found to be 58 RU and the maximum C3b binding at 20 µg/mL C3b (RU) turned out to be 100 RU.
